Reference: patent publication US20170296650A1 (Novartis, published 2017)

What was measured:
[1] = target: T1, hCMV gH + gL + UL128 + UL130 + UL131A (5-member complex; HEK293T co-transfectant) (hCMV, UniProt P12824 24-743; P16832 31-278; P16837 1-171; P16772 1-214); experiment: cell competition; competitor 2F4-biotin
T1 construct: whole, on cells; in the functional rows it stands for the complex on virions or transduced cells of the strain or isolate named in the readout; also called gH/gL/UL128-131A complex; pentameric complex

[2] = target: T1, hCMV gH + gL + UL128 + UL130 + UL131A …; experiment: cell-based or functional assay
[3] = target: hCMV UL130 Q191K (virus selected with 4I22) (hCMV); experiment: cell-based or functional assay
[4] = target: hCMV UL130 W179R (virus selected with 4I22) (hCMV); experiment: cell-based or functional assay
[5] = target: T1, hCMV gH + gL + UL128 + UL130 + UL131A …; experiment: cell competition; competitor 8J16-biotin
[6] = target: T1, hCMV gH + gL + UL128 + UL130 + UL131A …; experiment: cell-based or functional assay; remark: listed apart in the source
[7] = target: T1, hCMV gH + gL + UL128 + UL130 + UL131A …; experiment: cell competition; competitor 2C12-biotin
[8] = target: T1, hCMV gH + gL + UL128 + UL130 + UL131A …; experiment: cell-based or functional assay; remark: listed apart in the source
[9] = target: T1, hCMV gH + gL + UL128 + UL130 + UL131A …; experiment: cell competition; competitor 4I22-biotin
[10] = target: T2, hCMV UL130 + UL131A (HEK293T co-transfectant) (hCMV, UniProt P16772 1-214); experiment: cell-based or functional assay
[11] = target: T1, hCMV gH + gL + UL128 + UL130 + UL131A …; experiment: cell competition; competitor 10F7-biotin
[12] = target: T2, hCMV UL130 + UL131A (HEK293T …); experiment: cell-based or functional assay; remark: listed apart in the source
[13] = target: T1, hCMV gH + gL + UL128 + UL130 + UL131A …; experiment: cell competition; competitor 1F11-biotin
[14] = target: T1, hCMV gH + gL + UL128 + UL130 + UL131A …; experiment: cell competition; competitor 4N10-biotin
[15] = target: soluble 5-member complex (gH, gL, UL128, UL130, UL131A) (hCMV, UniProt P12824 24-716; P16832 31-278; P16837 28-171; P16772 26-214); experiment: Biacore SPR, soluble 5-member complex
[16] = target: T1, hCMV gH + gL + UL128 + UL130 + UL131A …; experiment: cell competition; competitor 5A2-biotin
[17] = target: T1, hCMV gH + gL + UL128 + UL130 + UL131A …; experiment: cell competition; competitor 8I21-biotin

B1: 4I22 (antibody, human IgG1, V domains shown)
VH: QVQLVESGGGVVQPGRSLRLSCVASGFTFSSYAMHWVRQAPGKGLEWVAVISYDGDNKFYADSVKGRFRISRDTSKNTLYLEMNSLRAADTAIYYCAREELVGLMPPYYNYGLDVWGQGTTVTVSS
VL: QSVLTQPPSVSAAPGQKVTISCSGSNSNIGNNYVSWYQQLPGRAPKLLIYDNDHRPSGIPDRFSGSKSGTSATLVITGLQTGDEADYYCETWDTSLSAAVVFGGGTKLTVL
notes: fully human IgG1 with unaltered Fc; also called 4I22-biotin; 4122
[1]
  Inhibition of binding (%): 100%
[2]
  EC50 inhibition of cell-cell fusion: 0.076 µg/mL
[3]
  fold decrease in susceptibility of escape virus: > 50000 fold
[4]
  fold decrease in susceptibility of escape virus: > 50000 fold
[5]
  Inhibition of binding (%): 0%
[6]
  EC90 neutralization HUVEC, isolate TM-20749: 0.011 µg/mL
  EC90 neutralization HUVEC, isolate TM-31354: 0.012 µg/mL
  EC90 neutralization HUVEC, isolate TM-E5271: 0.001 µg/mL
  EC90 neutralization HUVEC, isolate TM-E9361: 0.016 µg/mL
  EC90 neutralization HUVEC, isolate TM-E14953: 0.012 µg/mL
  EC90 neutralization HUVEC, isolate TM-E19664: 0.013 µg/mL
  EC90 neutralization HUVEC, isolate TM-E20744: 0.02 µg/mL
  EC90 neutralization HUVEC, isolate TM-E28175: 0.009 µg/mL
  EC90 neutralization HUVEC, isolate TM-E28257: 0.001 µg/mL
[7]
  Inhibition of binding (%): 0%
[8]
  neutralization of ARPE infection, isolate TM-20749: 0.01 µg/mL
  neutralization of ARPE infection, isolate TM-31354: 0.028 µg/mL
  neutralization of ARPE infection, isolate TM-E5271: 0.01 µg/mL
  neutralization of ARPE infection, isolate TM-E9361: 0.002 µg/mL
  neutralization of ARPE infection, isolate TM-E14953: 0.012 µg/mL
  neutralization of ARPE infection, isolate TM-E19664: 0.016 µg/mL
  neutralization of ARPE infection, isolate TM-E20744: 0.01 µg/mL
  neutralization of ARPE infection, isolate TM-E28175: 0.006 µg/mL
  neutralization of ARPE infection, isolate TM-E28257: 0.009 µg/mL
[9]
  Inhibition of binding (%): 100%
[10]
  90% neutralization VR1814, ARPE: 0.0015 µg/mL
  90% neutralization VR1814, MRC-9: > 10 µg/mL
[11]
  Inhibition of binding (%): 100%
[12]
  50% neutralization VR1814, ARPE: < 0.01 µg/mL
  50% neutralization VR1814, MRC-9: > 2 µg/mL
[13]
  Inhibition of binding (%): 100%
[14]
  Inhibition of binding (%): 0%
[15]
  Kd: 0.31 nM
[16]
  Inhibition of binding (%): 0%
[17]
  Inhibition of binding (%): 0%
